Source: the supplement of paper PMC9112550, “Optimization of the antimicrobial peptide Bac7 by deep mutational scanning” (BMC Biology, 2022)

System: Escherichia coli TOP10
Experiment: shrunken log2 fold change of peptide-encoding DNA abundance (4.5 h post-induction vs induction); higher = less antimicrobial activity (less host growth inhibition)
Conditions: time post-induction: 4.5 h; library: site-saturation at positions 5, 18, 19, 20
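Also: peptides expressed intracellularly from a pBAD plasmid library in pooled LB shake-flask culture, induced with 0.3% L-arabinose, DNA abundance read by NGS, three biological replicates, DESeq2 with apeglm shrinkage.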

Sequence	shrunken log2 fold change
RRIRLRPPRLPRPRPRPIQSPRP	-0.0832
RRIRDRPPRLPRPRPRPLDAPRP	0.0602
RRIRNRPPRLPRPRPRPEPEPRP	0.0273
RRIRIRPPRLPRPRPRPNENPRP	-0.59
RRIRCRPPRLPRPRPRPMGLPRP	-0.0216
RRIRIRPPRLPRPRPRPTPAPRP	0.198
RRIRWRPPRLPRPRPRPEPTPRP	0.857
RRIRGRPPRLPRPRPRPDGFPRP	0.171
RRIRFRPPRLPRPRPRPMQAPRP	0.119
RRIRHRPPRLPRPRPRPWYRPRP	-0.0954
RRIRNRPPRLPRPRPRPEGWPRP	0.68
RRIRMRPPRLPRPRPRPIDSPRP	0.165
RRIRLRPPRLPRPRPRPAYYPRP	-0.253
RRIRHRPPRLPRPRPRPGWGPRP	0.0673
RRIRMRPPRLPRPRPRPRQSPRP	0.982
RRIRARPPRLPRPRPRPKNRPRP	0.134
RRIRPRPPRLPRPRPRPVITPRP	-0.123
RRIRQRPPRLPRPRPRPATAPRP	0.115
RRIRFRPPRLPRPRPRPKFIPRP	-1.02
RRIRNRPPRLPRPRPRPDGNPRP	0.102

Sequence	shrunken log2 fold change
RRIRNRPPRLPRPRPRPQIRPRP	-0.0373
RRIRHRPPRLPRPRPRPRGVPRP	0.335
RRIRDRPPRLPRPRPRPTPKPRP	0.346
RRIRMRPPRLPRPRPRPQASPRP	0.309
RRIRMRPPRLPRPRPRPRYAPRP	0.467
RRIRIRPPRLPRPRPRPWRVPRP	-0.0531
RRIRSRPPRLPRPRPRPHRDPRP	-0.141
RRIRRRPPRLPRPRPRPAQLPRP	0.42
RRIRERPPRLPRPRPRPGDYPRP	-0.0324
RRIRMRPPRLPRPRPRPHKLPRP	-0.0702
RRIRPRPPRLPRPRPRPVVWPRP	0.535
RRIRDRPPRLPRPRPRPKAGPRP	0.143
RRIRNRPPRLPRPRPRPPIEPRP	0.0957
RRIRSRPPRLPRPRPRPYAPPRP	-0.205
RRIRIRPPRLPRPRPRPSSEPRP	-0.299
RRIRKRPPRLPRPRPRPWFEPRP	0.0346
RRIRYRPPRLPRPRPRPWHLPRP	-0.0873
RRIRCRPPRLPRPRPRPPGVPRP	0.158
RRIRSRPPRLPRPRPRPQILPRP	-0.0216
RRIRLRPPRLPRPRPRPVWYPRP	-0.277

Sequence	shrunken log2 fold change
RRIRERPPRLPRPRPRPMLGPRP	0.00848
RRIRERPPRLPRPRPRPELLPRP	-0.000642
RRIRPRPPRLPRPRPRPFLHPRP	-0.273
RRIRYRPPRLPRPRPRPNTMPRP	-1.1
RRIRWRPPRLPRPRPRPMIAPRP	0.00921
RRIRYRPPRLPRPRPRPMDFPRP	-0.205
RRIRRRPPRLPRPRPRPTASPRP	0.146
RRIRERPPRLPRPRPRPGAKPRP	0.188
RRIRFRPPRLPRPRPRPIQVPRP	-0.228
RRIRPRPPRLPRPRPRPMDMPRP	-0.784
RRIRARPPRLPRPRPRPKGRPRP	0.368
RRIRARPPRLPRPRPRPNPSPRP	0.262
RRIRIRPPRLPRPRPRPNWDPRP	-0.0401
RRIRIRPPRLPRPRPRPCAKPRP	0.0416
RRIRPRPPRLPRPRPRPWYEPRP	-0.441
RRIRARPPRLPRPRPRPESEPRP	3.51
RRIRIRPPRLPRPRPRPWPSPRP	0.193
RRIRERPPRLPRPRPRPMDRPRP	0.0196
RRIRFRPPRLPRPRPRPMHSPRP	-0.263
RRIRCRPPRLPRPRPRPTRGPRP	0.807
